According to FireProtDB (doi:10.1016/0022-2836(92)90560-7):

B1: Ribonuclease, P00648 (parent)
chain: MMKMEGIALKKRLSWISVCLLVLVSAAGMLFSTAAKTETSSHKAHTEAQVINTFDGVADYLQTYHKLPDNYITKSEAQALGWVASKGNLADVAPGKSIGGDIFSNREGKLPGKSGRTWREADINYTSGFRNSDRILYSSDWLIYKTTDHYQTFTKIR

Variants of: B1
Conditions: Bacillus amyloliquefaciens, 25 °C, Urea, Fluorescence, MES/Tris 150 mM/150 mM/, NaCl 1 M, structure 1BNI, whole UniProt chain shown

With MMKMEGIALKKRLSWISVCLLVLVSAAGMLFSTAAKTETSSHKAHTEAQVINTFDGVADYLQTYHKLPDNYITKSEAQALGWVASKGNLADVAPGKSIGGDIFSNREGKLPGKSGRTWREADINYTSGFRNSDRILYSSDYLIYKTTDHYQTFTKIR [W141Y] the “ddG of mutation (higher = less stable)” value (pH 5.8) was 1.27 kcal/mol, the denaturant m value (pH 5.8) was 1.98 kcal/mol/M and the “denaturant midpoint (higher = more stable)” value (shortened to “denaturant midpoint”) (pH 5.8) was 4.96 M. The unfolding free energy (pH 5.8) was 9.73 kcal/mol, the “ddG of mutation (higher = less stable)” value (pH 9) was 0.99 kcal/mol and the denaturant m value (pH 9) was 2 kcal/mol/M. For the same variant, the “denaturant midpoint” value (pH 9) was 4.29 M and the unfolding free energy (pH 9) was 8.42 kcal/mol.

In the case of MMKMEGIALKKRLSWISVCLLVLVSAAGMLFSTAAKTETSSHKAHTEAQVINTFDGVADYLQTYGKLPDNYITKSEAQALGWVASKGNLADVAPGKSIGGDIFSNREGKLPGKSGRTWREADINYTSGFRNSDRILYSSDWLIYKTTDHYQTFTKIR [H65G], the “ddG of mutation (higher = less stable)” value (pH 5.8) is reported as 0.98 kcal/mol, the denaturant m value (pH 5.8) is reported as 1.85 kcal/mol/M and the “denaturant midpoint” value (pH 5.8) is reported as 5.12 M. The unfolding free energy (pH 5.8) was 10 kcal/mol, the “ddG of mutation (higher = less stable)” value (pH 9) was -0.51 kcal/mol and the denaturant m value (pH 9) was 2.07 kcal/mol/M. For the same variant, the “denaturant midpoint” value (pH 9) was 5.06 M and the unfolding free energy (pH 9) was 9.92 kcal/mol.

In the case of MMKMEGIALKKRLSWISVCLLVLVSAAGMLFSTAAKTETSSHKAHTEAQVINTFDGVADYLQTYHKLPDNYITKSEAQALGWVASKGNLADVAPGKSIGGDIFSNREGKLPGKSGRTWREADINYTSGFRNSDRILYSSDFLIYKTTDHYQTFTKIR [W141F], the “ddG of mutation (higher = less stable)” value (pH 5.8) is reported as 1.06 kcal/mol, the denaturant m value (pH 5.8) is reported as 1.89 kcal/mol/M and the “denaturant midpoint” value (pH 5.8) is reported as 5.07 M. For the same variant, the unfolding free energy (pH 5.8) was 9.94 kcal/mol, the “ddG of mutation (higher = less stable)” value (pH 9) was 0.6 kcal/mol and the denaturant m value (pH 9) was 2.01 kcal/mol/M. For the same variant, the “denaturant midpoint” value (pH 9) was 4.5 M and the unfolding free energy (pH 9) was 8.81 kcal/mol.

For MMKMEGIALKKRLSWISVCLLVLVSAAGMLFSTAAKTETSSHKAHTEAQVINTFDGVADYLQTYHKLPDNYITKSEAQALGWVASKGNLADVAPGKSIGGDIFSNREGKLPGKSGRTWREADINYTSGFRNSDRILYSSDLLIYKTTDHYQTFTKIR [W141L], the “ddG of mutation (higher = less stable)” value (pH 5.8) was 1.59 kcal/mol, the denaturant m value (pH 5.8) was 2 kcal/mol/M and the “denaturant midpoint” value (pH 5.8) was 4.8 M. For the same variant, the unfolding free energy (pH 5.8) was 9.41 kcal/mol, the “ddG of mutation (higher = less stable)” value (pH 9) was 0.66 kcal/mol and the denaturant m value (pH 9) was 1.98 kcal/mol/M. The “denaturant midpoint” value (pH 9) was 4.47 M and the unfolding free energy (pH 9) was 8.75 kcal/mol.

With MMKMEGIALKKRLSWISVCLLVLVSAAGMLFSTAAKTETSSHKAHTEAQVINTFDGVADYLQTYGKLPDNYITKSEAQALGWVASKGNLADVAPGKSIGGDIFSNREGKLPGKSGRTWREADINYTSGFRNSDRILYSSDLLIYKTTDHYQTFTKIR [H65G W141L] the denaturant m value (pH 9) was 1.8 kcal/mol/M, the “denaturant midpoint” value (pH 9) was 4.96 M and the unfolding free energy (pH 9) was 9.72 kcal/mol.
